Test results taken from the supplement of paper PMC10724198.
± gives the standard deviation of the averaged measurements.

Columns and labels:
Saccharomyces cerevisiae [1] = test: protein stability index of tFT-peptide fusion (C-terminal peptide) (PSI (0-1 scale)); higher = more stable (slower turnover); conditions: genetic background: wild type; temperature: 30 C
Saccharomyces cerevisiae [2] = test: as above
Description: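 MPS profiling in S. cerevisiae of the tFT-X12 degron library: putative degron peptides plus stable controls, 12 aa, fused to the C-terminus of a sfGFP-mCherry timer. Cells are FACS-sorted into 8 mCherry/sfGFP bins and deep-sequenced. PSI runs from 0 (unstable) to 1 (stable). Backgrounds are wild type, das1Δ and doa10Δ at 30 °C, and wild type, das1Δ, cdc34-1 and cdc53-1 at 37 °C; 2-3 technical replicates each.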

[3] = genetic background: cdc34-1, temperature: 37 C
[4] = genetic background: cdc53-1, temperature: 37 C
[5] = genetic background: das1 deletion, temperature: 30 C
[6] = genetic background: das1 deletion, temperature: 37 C
[7] = genetic background: doa10 deletion, temperature: 30 C
[8] = genetic background: wild type, temperature: 30 C
[9] = genetic background: wild type, temperature: 37 C
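Further: PSI is a weighted mean of sequencing reads over stability bins, variants kept only with over 10 reads, mCherry proximal and sfGFP distal, peptide attached via GGGS linker.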

IFHWLYLLIALI
protein stability index (Saccharomyces cerevisiae [1]): 0.309 ± 0.014
protein stability index (Saccharomyces cerevisiae [2]; [3]): 0.459 ± 0.025
protein stability index (Saccharomyces cerevisiae [2]; [4]): 0.497 ± 0.015
protein stability index (Saccharomyces cerevisiae [2]; [5]): 0.436 ± 0.027
protein stability index (Saccharomyces cerevisiae [2]; [6]): 0.524 ± 0.0054
protein stability index (Saccharomyces cerevisiae [2]; [7]): 0.2701 ± 0.0025
protein stability index (Saccharomyces cerevisiae [2]; [8]): 0.254 ± 0.029
protein stability index (Saccharomyces cerevisiae [2]; [9]): 0.312 ± 0.014

GLFLLWWLGWLV
protein stability index (Saccharomyces cerevisiae [1]): 0.422 ± 0.036
protein stability index (Saccharomyces cerevisiae [2]; [3]): 0.63 ± 0.011
protein stability index (Saccharomyces cerevisiae [2]; [4]): 0.645 ± 0.043
protein stability index (Saccharomyces cerevisiae [2]; [5]): 0.468 ± 0.022
protein stability index (Saccharomyces cerevisiae [2]; [6]): 0.651 ± 0.023
protein stability index (Saccharomyces cerevisiae [2]; [7]): 0.333 ± 0.02
protein stability index (Saccharomyces cerevisiae [2]; [8]): 0.376 ± 0.02
protein stability index (Saccharomyces cerevisiae [2]; [9]): 0.5187 ± 0.0047

PKRNNRKAQQIS
protein stability index (Saccharomyces cerevisiae [1]): 0.405 ± 0.032
protein stability index (Saccharomyces cerevisiae [2]; [3]): 0.61 ± 0.015
protein stability index (Saccharomyces cerevisiae [2]; [4]): 0.698 ± 0.038
protein stability index (Saccharomyces cerevisiae [2]; [5]): 0.689 ± 0.019
protein stability index (Saccharomyces cerevisiae [2]; [6]): 0.704 ± 0.06
protein stability index (Saccharomyces cerevisiae [2]; [7]): 0.249 ± 0.016
protein stability index (Saccharomyces cerevisiae [2]; [8]): 0.254 ± 0.043
protein stability index (Saccharomyces cerevisiae [2]; [9]): 0.493 ± 0.019

VCCSSVSLLVFA
protein stability index (Saccharomyces cerevisiae [1]): 0.374 ± 0.023
protein stability index (Saccharomyces cerevisiae [2]; [3]): 0.362 ± 0.017
protein stability index (Saccharomyces cerevisiae [2]; [4]): 0.363 ± 0.01
protein stability index (Saccharomyces cerevisiae [2]; [5]): 0.267 ± 0.028
protein stability index (Saccharomyces cerevisiae [2]; [6]): 0.44 ± 0.0076
protein stability index (Saccharomyces cerevisiae [2]; [7]): 0.225 ± 0.0042
protein stability index (Saccharomyces cerevisiae [2]; [8]): 0.256 ± 0.033
protein stability index (Saccharomyces cerevisiae [2]; [9]): 0.419 ± 0.01

PFALTPPPSPRS
protein stability index (Saccharomyces cerevisiae [1]): 0.426 ± 0.043
protein stability index (Saccharomyces cerevisiae [2]; [3]): 0.745 ± 0.011
protein stability index (Saccharomyces cerevisiae [2]; [5]): 0.384 ± 0.024
protein stability index (Saccharomyces cerevisiae [2]; [6]): 0.583 ± 0.0083
protein stability index (Saccharomyces cerevisiae [2]; [7]): 0.356 ± 0.024
protein stability index (Saccharomyces cerevisiae [2]; [8]): 0.366 ± 0.0092
protein stability index (Saccharomyces cerevisiae [2]; [9]): 0.52 ± 0.046

MIILGFILYFFW
protein stability index (Saccharomyces cerevisiae [1]): 0.422 ± 0.033
protein stability index (Saccharomyces cerevisiae [2]; [3]): 0.4 ± 0.011
protein stability index (Saccharomyces cerevisiae [2]; [4]): 0.533 ± 0.03
protein stability index (Saccharomyces cerevisiae [2]; [5]): 0.332 ± 0.035
protein stability index (Saccharomyces cerevisiae [2]; [6]): 0.505 ± 0.018
protein stability index (Saccharomyces cerevisiae [2]; [7]): 0.352 ± 0.04
protein stability index (Saccharomyces cerevisiae [2]; [8]): 0.347 ± 0.034
protein stability index (Saccharomyces cerevisiae [2]; [9]): 0.444 ± 0.018

QGGTWKKLVKMI
protein stability index (Saccharomyces cerevisiae [1]): 0.226 ± 0.035
protein stability index (Saccharomyces cerevisiae [2]; [3]): 0.573 ± 0.05
protein stability index (Saccharomyces cerevisiae [2]; [4]): 0.6963 ± 0.006
protein stability index (Saccharomyces cerevisiae [2]; [5]): 0.643 ± 0.055
protein stability index (Saccharomyces cerevisiae [2]; [6]): 0.7165 ± 0.0019
protein stability index (Saccharomyces cerevisiae [2]; [7]): 0.0823 ± 0.02
protein stability index (Saccharomyces cerevisiae [2]; [8]): 0.101 ± 0.018
protein stability index (Saccharomyces cerevisiae [2]; [9]): 0.165 ± 0.019

LFFPLPGILSFF
protein stability index (Saccharomyces cerevisiae [1]): 0.523 ± 0.046
protein stability index (Saccharomyces cerevisiae [2]; [3]): 0.76 ± 0.027
protein stability index (Saccharomyces cerevisiae [2]; [4]): 0.771 ± 0.022
protein stability index (Saccharomyces cerevisiae [2]; [5]): 0.631 ± 0.022
protein stability index (Saccharomyces cerevisiae [2]; [6]): 0.7783 ± 0.0029
protein stability index (Saccharomyces cerevisiae [2]; [7]): 0.484 ± 0.0073
protein stability index (Saccharomyces cerevisiae [2]; [8]): 0.498 ± 0.02
protein stability index (Saccharomyces cerevisiae [2]; [9]): 0.676 ± 0.033

FVLLSVCFFGCL
protein stability index (Saccharomyces cerevisiae [1]): 0.442 ± 0.024
protein stability index (Saccharomyces cerevisiae [2]; [3]): 0.306 ± 0.011
protein stability index (Saccharomyces cerevisiae [2]; [4]): 0.4219 ± 0.0028
protein stability index (Saccharomyces cerevisiae [2]; [5]): 0.336 ± 0.024
protein stability index (Saccharomyces cerevisiae [2]; [6]): 0.495 ± 0.017
protein stability index (Saccharomyces cerevisiae [2]; [7]): 0.301 ± 0.0069
protein stability index (Saccharomyces cerevisiae [2]; [8]): 0.327 ± 0.004
protein stability index (Saccharomyces cerevisiae [2]; [9]): 0.438 ± 0.044

VEQLLYIKATNV
protein stability index (Saccharomyces cerevisiae [1]): 0.408 ± 0.019
protein stability index (Saccharomyces cerevisiae [2]; [3]): 0.689 ± 0.012
protein stability index (Saccharomyces cerevisiae [2]; [4]): 0.7025 ± 0.0067
protein stability index (Saccharomyces cerevisiae [2]; [5]): 0.6088 ± 0.0057
protein stability index (Saccharomyces cerevisiae [2]; [6]): 0.7288 ± 0.0038
protein stability index (Saccharomyces cerevisiae [2]; [7]): 0.238 ± 0.029
protein stability index (Saccharomyces cerevisiae [2]; [8]): 0.29 ± 0.036
protein stability index (Saccharomyces cerevisiae [2]; [9]): 0.5062 ± 0.0015

LLSFSQLGYFVL
protein stability index (Saccharomyces cerevisiae [1]): 0.212 ± 0.04
protein stability index (Saccharomyces cerevisiae [2]; [3]): 0.634 ± 0.056
protein stability index (Saccharomyces cerevisiae [2]; [4]): 0.716 ± 0.012
protein stability index (Saccharomyces cerevisiae [2]; [5]): 0.633 ± 0.034
protein stability index (Saccharomyces cerevisiae [2]; [6]): 0.738 ± 0.023
protein stability index (Saccharomyces cerevisiae [2]; [7]): 0.13 ± 0.0051
protein stability index (Saccharomyces cerevisiae [2]; [8]): 0.152 ± 0.039
protein stability index (Saccharomyces cerevisiae [2]; [9]): 0.335 ± 0.027

FSVLRLVIVSLL
protein stability index (Saccharomyces cerevisiae [1]): 0.0995 ± 0.012
protein stability index (Saccharomyces cerevisiae [2]; [3]): 0.227 ± 0.012
protein stability index (Saccharomyces cerevisiae [2]; [4]): 0.503 ± 0.067
protein stability index (Saccharomyces cerevisiae [2]; [5]): 0.35 ± 0.037
protein stability index (Saccharomyces cerevisiae [2]; [6]): 0.537 ± 0.019
protein stability index (Saccharomyces cerevisiae [2]; [7]): 0.0564 ± 0.004
protein stability index (Saccharomyces cerevisiae [2]; [8]): 0.0846 ± 0.04
protein stability index (Saccharomyces cerevisiae [2]; [9]): 0.0783 ± 0.029

LQIKSFTSQRLA
protein stability index (Saccharomyces cerevisiae [1]): 0.158 ± 0.021
protein stability index (Saccharomyces cerevisiae [2]; [3]): 0.509 ± 0.021
protein stability index (Saccharomyces cerevisiae [2]; [4]): 0.698 ± 0.0074
protein stability index (Saccharomyces cerevisiae [2]; [5]): 0.6421 ± 0.0063
protein stability index (Saccharomyces cerevisiae [2]; [6]): 0.72398 ± 0.0003
protein stability index (Saccharomyces cerevisiae [2]; [7]): 0.0758 ± 0.016
protein stability index (Saccharomyces cerevisiae [2]; [8]): 0.0902 ± 0.037
protein stability index (Saccharomyces cerevisiae [2]; [9]): 0.0965 ± 0.038

RVFRRFCCVISM
protein stability index (Saccharomyces cerevisiae [1]): 0.366 ± 0.025
protein stability index (Saccharomyces cerevisiae [2]; [3]): 0.312 ± 0.034
protein stability index (Saccharomyces cerevisiae [2]; [4]): 0.342 ± 0.018
protein stability index (Saccharomyces cerevisiae [2]; [5]): 0.342 ± 0.029
protein stability index (Saccharomyces cerevisiae [2]; [6]): 0.49 ± 0.045
protein stability index (Saccharomyces cerevisiae [2]; [7]): 0.437 ± 0.027
protein stability index (Saccharomyces cerevisiae [2]; [8]): 0.339 ± 0.022
protein stability index (Saccharomyces cerevisiae [2]; [9]): 0.439 ± 0.015

SSVLLMFFCFVC
protein stability index (Saccharomyces cerevisiae [1]): 0.262 ± 0.023
protein stability index (Saccharomyces cerevisiae [2]; [3]): 0.256 ± 0.02
protein stability index (Saccharomyces cerevisiae [2]; [4]): 0.388 ± 0.015
protein stability index (Saccharomyces cerevisiae [2]; [5]): 0.318 ± 0.014
protein stability index (Saccharomyces cerevisiae [2]; [6]): 0.476 ± 0.025
protein stability index (Saccharomyces cerevisiae [2]; [7]): 0.159 ± 0.012
protein stability index (Saccharomyces cerevisiae [2]; [8]): 0.164 ± 0.011
protein stability index (Saccharomyces cerevisiae [2]; [9]): 0.252 ± 0.019

VWVAWLGGAILA
protein stability index (Saccharomyces cerevisiae [1]): 0.267 ± 0.021
protein stability index (Saccharomyces cerevisiae [2]; [3]): 0.149 ± 0.021
protein stability index (Saccharomyces cerevisiae [2]; [4]): 0.188 ± 0.012
protein stability index (Saccharomyces cerevisiae [2]; [5]): 0.2 ± 0.029
protein stability index (Saccharomyces cerevisiae [2]; [6]): 0.29 ± 0.0052
protein stability index (Saccharomyces cerevisiae [2]; [7]): 0.174 ± 0.024
protein stability index (Saccharomyces cerevisiae [2]; [8]): 0.194 ± 0.022
protein stability index (Saccharomyces cerevisiae [2]; [9]): 0.272 ± 0.0045

LPPFLSSLPSSP
protein stability index (Saccharomyces cerevisiae [1]): 0.704 ± 0.019
protein stability index (Saccharomyces cerevisiae [2]; [3]): 0.715 ± 0.027
protein stability index (Saccharomyces cerevisiae [2]; [4]): 0.769 ± 0.016
protein stability index (Saccharomyces cerevisiae [2]; [5]): 0.66 ± 0.017
protein stability index (Saccharomyces cerevisiae [2]; [6]): 0.7635 ± 0.0039
protein stability index (Saccharomyces cerevisiae [2]; [7]): 0.668 ± 0.031
protein stability index (Saccharomyces cerevisiae [2]; [8]): 0.663 ± 0.011
protein stability index (Saccharomyces cerevisiae [2]; [9]): 0.732 ± 0.013
